# Test results published in patent US20220169693A1, “Screening Assays, Modulators and Modulation of Intracellular Signalling Mediated by Immunoglobulin Superfamily Cell Adhesion Molecules” (Monash University, priority 2018, published 2022).
# What was measured:
# Format in all cases: cell-based
# [1] = target: T1, full length murine ALCAM1-583 (Mus musculus, UniProt Q61490); experiment: Ang II-induced p65/PCNA expression in AT1R-CHO cells transfected with full length murine ALCAM (qRT-PCR)
# T1 construct: host or cells: AT1R-CHO (CHO stably transfected with human AT1R-Rluc8), transient transfection; untagged clone in pCMV6
# T1 sequence (Q61490 28-583): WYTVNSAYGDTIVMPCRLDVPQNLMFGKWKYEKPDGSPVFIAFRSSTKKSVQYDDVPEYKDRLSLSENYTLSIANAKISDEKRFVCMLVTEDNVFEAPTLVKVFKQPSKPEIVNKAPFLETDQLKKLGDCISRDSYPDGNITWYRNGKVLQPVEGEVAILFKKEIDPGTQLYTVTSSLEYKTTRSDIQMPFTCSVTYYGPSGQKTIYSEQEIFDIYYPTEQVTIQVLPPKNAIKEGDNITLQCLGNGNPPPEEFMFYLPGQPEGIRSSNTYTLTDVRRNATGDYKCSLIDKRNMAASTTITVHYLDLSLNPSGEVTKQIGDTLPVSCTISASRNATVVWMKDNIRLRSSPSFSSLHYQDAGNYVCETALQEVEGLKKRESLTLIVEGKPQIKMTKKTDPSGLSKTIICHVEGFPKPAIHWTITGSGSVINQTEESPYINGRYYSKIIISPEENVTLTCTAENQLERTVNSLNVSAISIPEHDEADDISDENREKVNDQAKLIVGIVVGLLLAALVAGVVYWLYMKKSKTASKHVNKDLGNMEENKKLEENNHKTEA
# Procedure: (§1) Adult retinal pigment epithelial (ARPE) cells were cultured in Dulbecco's modified Eagle's medium (DMEM)/F12 endothelial cell growth supplement (ECGS) supplemented media. Chinese Hamster Ovary (CHO) cells were cultured using F12 media (10% FCS with 2 mM glutamine). Human microvascular endothelial cells (HMEC) were cultured in MCDB 131 medium (10% FCS with 10 mM glutamine, EGF and hydrocortisone).
# (§2) 100 ng of AT1R-Rluc8 construct was transfected into CHO cells using Lipofectamine 2000 (Thermo). Stable transfectants were selected using G418. AT1R-CHO were then transiently transfected with the IgSF CAM and/or RAGE constructs using Lipofectamine 2000 (Invitrogen) and incubated for 16h.
# (§3) Oligonucleotides were designed and ordered to generate the ALCAM, BCAM and MCAM intracellular (cytosolic) domains. These included a 5′ NheI site, Kozak sequence and initiating Methionine and then DNA sequences corresponding to ALCAM residues 552-583, BCAM residues 569-628 and MCAM residues 584-637 respectively (Note that as residue 551 of ALCAM is Methionine, the cytosolic tail of ALCAM effectively corresponded to residues 551-583). The pCIneo parental vector was digested with NheI and NotI restriction enzymes, and the DNA of the fragments of the ALCAM, BCAM and MCAM tails/cytosolic domains were ligated into the digested plasmid. After transformation and recovery, colonies were screened and individual clones sequenced. The sequence of the insert was confirmed by DNA sequencing (Micromon, Monash University). A full-length clone of Mouse ALCAM (BC027280) was purchased from Origene. The untagged clone was supplied in the vector pCMV6. […]
# (§4) After 2 hours of exposure to Ang II (1 μM) cells were placed in Trizol, mRNA extracted and cDNA synthesized. Changes in the gene expression of the NFκB subunit, p65 (RelA) or NFκB-activated target genes (e.g ICAM-1) were estimated by quantitative real-time RT-PCR, performed using the TaqMan system based on real-time detection of accumulated fluorescence (ABI Prism 7700, Perkin-Elmer Inc, PE Biosystems, Foster City, Calif., USA). […]
# [2] = target: T2, human ALCAM (ALCAM1-583, cytosolic tail ALCAM551-583) (Homo sapiens, UniProt Q13740); experiment: Ang II-induced p65/PCNA expression in AT1R-CHO cells transfected with human ALCAM (full length or cytosolic tail); details: Ang II 1 μM, co-transfection (FIG. 3G, 1E)
# T2 construct: expressed in transfected cells; host or cells: AT1R-CHO (CHO stably transfected with human AT1R-Rluc8), transient transfection
# T2 sequence (Q13740 551-583): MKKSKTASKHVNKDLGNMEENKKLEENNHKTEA
# Procedure: as §1, §2
# (§5) Oligonucleotides were designed and ordered to generate the ALCAM, BCAM and MCAM intracellular (cytosolic) domains. These included a 5′ NheI site, Kozak sequence and initiating Methionine and then DNA sequences corresponding to ALCAM residues 552-583, BCAM residues 569-628 and MCAM residues 584-637 respectively (Note that as residue 551 of ALCAM is Methionine, the cytosolic tail of ALCAM effectively corresponded to residues 551-583). The pCIneo parental vector was digested with NheI and NotI restriction enzymes, and the DNA of the fragments of the ALCAM, BCAM and MCAM tails/cytosolic domains were ligated into the digested plasmid. After transformation and recovery, colonies were screened and individual clones sequenced. The sequence of the insert was confirmed by DNA sequencing (Micromon, Monash University). A full-length clone of Mouse ALCAM (BC027280) was purchased from Origene. The untagged clone was supplied in the vector pCMV6. Overlapping DNA sequences were ordered to generate the ALCAM559-580 fragment oligonucleotide. These included a 5′ NheI site, Kozak sequence and initiating Methionine and then DNA sequences corresponding to ALCAM residues 559-580. The pCIneo parental vector was digested with NheI and NotI restriction enzymes, and the ALCAM559-580 construct DNA was ligated into the digested plasmid. After transformation and recovery, colonies were screened and individual clones sequenced.
# (§6) After 2 hours of exposure to Ang II (1 μM) cells were placed in Trizol, mRNA extracted and cDNA synthesized. Changes in the gene expression of the NFκB subunit, p65 (RelA) or NFκB-activated target genes (e.g ICAM-1) were estimated by quantitative real-time RT-PCR, performed using the TaqMan system based on real-time detection of accumulated fluorescence (ABI Prism 7700, Perkin-Elmer Inc, PE Biosystems, Foster City, Calif., USA). Gene expression was normalized to 18S mRNA and reported as fold change compared to the level of expression in untreated control mice/cells, which were given an arbitrary value of 1.
# [3] = tested on: human ALCAM (ALCAM1-583, cytosolic tail ALCAM551-583); experiment: as above; details: Ang II 1 μM, co-transfection, text: cytosolic tail ALCAM551-583, legend: full length ALCAM1-583
# Procedure: as §1, §2, §5, §6
# [4] = target: T1, full length murine ALCAM1-583; experiment: S100A8/A9-induced PCNA expression in CHO cells transfected with full length murine ALCAM; details: S100A8/A9 1 μM 2 h, co-transfection (FIG. 4A)
# Procedure: as §1
# as §3, with “plasmid.” for “plasmid. After transformation and recovery, colonies were screened and individual clones sequenced. The sequence of the insert was confirmed by DNA sequencing (Micromon, Monash University). A full-length clone of Mouse ALCAM (BC027280) was purchased from Origene. The untagged clone was supplied in the vector pCMV6.”
# as §4, with “After 2 hours of exposure to Ang II (1 μM) cells were placed in Trizol, mRNA extracted and cDNA synthesized.” left out
# full length RAGE1-404 = full length RAGE1-404 (Homo sapiens, UniProt Q15109); experiment: Ang II-induced p65 expression in AT1R-CHO cells transfected with full length human RAGE; parameters: expressed in transfected cells; host or cells: AT1R-CHO (CHO stably transfected with human AT1R-Rluc8), transient transfection; details: Ang II 1 μM 2 h, co-transfection (FIG. 6A)
# Procedure: as §1, §2, §6
# [5] = target: T3, cytosolic tail of MCAM, MCAM584-637 (Homo sapiens, UniProt P43121); experiment: Ang II-induced p65 expression in AT1R-CHO cells transfected with cytosolic tail of MCAM; parameters: corresponds to residues 584-637 of MCAM plus an initiating Methionine; initiating Methionine (N); expressed in transfected cells; host or cells: AT1R-CHO (CHO stably transfected with human AT1R-Rluc8); insert in pCIneo; details: Ang II 1 μM, co-transfection (FIG. 3I)
# T3 sequence (P43121 with tags, fused parts or gaps): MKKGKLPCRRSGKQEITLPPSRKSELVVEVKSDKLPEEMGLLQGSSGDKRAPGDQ
# Procedure: as §1, §2
# Oligonucleotides were designed and ordered to generate the ALCAM, BCAM and MCAM intracellular (cytosolic) domains. […]
# as §4
# Sequence of full length RAGE1-404 (Q15109 23-404): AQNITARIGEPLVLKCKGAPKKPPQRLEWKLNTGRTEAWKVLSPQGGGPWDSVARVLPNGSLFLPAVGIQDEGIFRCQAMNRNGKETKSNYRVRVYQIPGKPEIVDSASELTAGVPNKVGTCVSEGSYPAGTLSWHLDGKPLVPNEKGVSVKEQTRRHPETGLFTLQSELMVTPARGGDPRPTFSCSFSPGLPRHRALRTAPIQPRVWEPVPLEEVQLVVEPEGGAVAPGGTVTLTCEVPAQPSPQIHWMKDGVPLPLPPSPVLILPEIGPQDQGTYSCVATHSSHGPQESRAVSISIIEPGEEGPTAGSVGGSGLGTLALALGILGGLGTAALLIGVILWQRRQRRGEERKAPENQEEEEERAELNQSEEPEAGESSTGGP
sequence,measurement,setting,value
MKHVNKDLGNMEENKKLEENNHK [ALCAM559-580],induction of p65-NFκB expression by Ang II via AT1R-dependent transactivation of full length murine ALCAM1-583,"[1]; Ang II 1 μM 2 h, co-transfection of the construct, vs pCIneo (FIG. 3B, 5B)",prevents induction
same,p65-NFκB dependent induction of PCNA expression by Ang II via full length murine ALCAM1-583,"[1]; Ang II 1 μM, co-transfection (FIG. 3C)",prevents induction
same,"induction of p65-NFκB expression by Ang II via transactivation of the cytosolic tail of human ALCAM, ALCAM551-583",[2],prevents induction
same,induction of p65-NFκB expression by Ang II via transactivation of human ALCAM (FIG. 3E),[3],prevents induction
same,p65-NFκB dependent induction of PCNA expression by Ang II via human ALCAM (FIG. 3F),[3],prevents induction
same,ligand-dependent signalling (PCNA expression) via murine ALCAM activated by S100A8/A9,[4],inhibited
same,induction of p65 expression mediated by full length human RAGE1-404 transactivated by AT1 receptor,full length RAGE1-404,inhibits
same,induction of p65-NFκB expression by Ang II via transactivation of MCAM584-637,[5],prevents induction
